Data published in patent publication US20110287512.

Legend:
Test in all cases: cell_activity
[1] = test system: ZFN7264 linker TSRPRPKP (synthetic); conditions: yeast, partner ZFN7263; host on 0-bp gap = 1.00
[2] = test system: ZFN7264 linker TGLPKPKP (synthetic); conditions: yeast, partner ZFN7263; host on 0-bp gap = 1.00
[3] = test system: ZFN7264 linker 1e (synthetic); conditions: yeast, partner ZFN7263; host on 0-bp gap = 1.00
[4] = test system: ZFN7264 linker TGGGGSQKP (synthetic); conditions: yeast, partner ZFN7263; host on 0-bp gap = 1.00
[5] = test system: ZFN7264 (host, center linker TGSQKP) (synthetic); conditions: yeast, partner ZFN7263; host on 0-bp gap = 1.00; host data same as Table 9
[6] = test system: ZFN7263 linker TQRPQIPPKP (synthetic); conditions: yeast, partner ZFN7264; host on 0-bp gap = 1.00
[7] = test system: ZFN7263 linker TYPRPLLAKP (synthetic); conditions: yeast, partner ZFN7264; host on 0-bp gap = 1.00
[8] = test system: ZFN7263 (host, center linker TGSQKP) (synthetic); conditions: yeast, partner ZFN7264; host on 0-bp gap = 1.00
[9] = test system: ZFN7263 linker TPRPPIPKP (synthetic); conditions: yeast, partner ZFN7264; host on 0-bp gap = 1.00
[10] = test system: ZFN7263 linker TPLCQRPMKQKP (synthetic); conditions: yeast, partner ZFN7264; host on 0-bp gap = 1.00
[11] = test system: ZFN7263 linker TGGGGSQKP (synthetic); conditions: yeast, partner ZFN7264; host on 0-bp gap = 1.00
[12] = test system: ZFN7263 linker TPNRCPPTKP (synthetic); conditions: yeast, partner ZFN7264; host on 0-bp gap = 1.00

Row | Sequence | activity (normalized MEL-1) [1] | activity (normalized MEL-1) [2] | activity (normalized MEL-1) [3] | activity (normalized MEL-1) [4] | activity (normalized MEL-1) [5] | activity (normalized MEL-1) [6] | activity (normalized MEL-1) [7] | activity (normalized MEL-1) [8] | activity (normalized MEL-1) [9] | activity (normalized MEL-1) [10] | activity (normalized MEL-1) [11] | activity (normalized MEL-1) [12]
1 | AAAGCGTAGCTCCG (double strand) [7264 yeast half-site gap TA] | 0.07 | 0.08 | 0.09 | 0.09 | 0.02 | – | – | – | – | – | – | –
2 | ACTCTGATTGGAAG (double strand) [7263 yeast half-site gap AT] | – | – | – | – | – | 0.02 | 0.05 | 0.02 | 0.03 | 0.01 | 0.02 | 0.03
3 | ACTCTGCTTGGAAG (double strand) [7263 yeast half-site gap CT] | – | – | – | – | – | 0.03 | 0.05 | 0.08 | 0.04 | 0.03 | 0.04 | 0.06
4 | AAAGCGCTGCTCCG (double strand) [7264 yeast half-site gap CT] | 0.1 | 0.09 | 0.11 | 0.15 | 0.08 | – | – | – | – | – | – | –
